Data reported in paper PMC9482650, “Quantitative fragmentomics allow affinity mapping of interactomes” (Nature Communications, 2022).
Each block holds one binder with its values, some of them ahead of it.

Assays:
Test in all cases: holdup assay
Set-up in all cases: key: below the threshold = too weak to quantify, mostly under pKd 3.1 to 4
[1] = target: Inadl_4, Q8NI35
[2] = target: T1, HTRA3, P83110
T1 sequence (P83110 354-453, limits assumed, looked up): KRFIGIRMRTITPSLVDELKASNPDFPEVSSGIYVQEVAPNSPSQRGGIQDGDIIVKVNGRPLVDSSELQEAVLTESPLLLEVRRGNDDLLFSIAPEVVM

[3] = target: GIPC2, Q8TF65
[4] = target: T2, TJP3_3, O95049
T2 sequence (O95049 375-456, limits assumed, looked up): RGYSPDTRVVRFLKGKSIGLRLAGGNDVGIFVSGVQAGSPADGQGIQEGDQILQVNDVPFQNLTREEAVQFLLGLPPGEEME

[5] = target: GOPC, Q9HD26
[6] = target: Inadl_3, Q8NI35
[7] = target: T3, HTRA4, P83105
T3 sequence (P83105 378-476, limits assumed, looked up): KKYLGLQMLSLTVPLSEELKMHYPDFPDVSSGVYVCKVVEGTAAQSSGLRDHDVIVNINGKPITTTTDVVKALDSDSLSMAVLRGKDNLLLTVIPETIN

[8] = target: T4, APBA1_2, Q02410
T4 sequence (Q02410 742-832, limits assumed, looked up): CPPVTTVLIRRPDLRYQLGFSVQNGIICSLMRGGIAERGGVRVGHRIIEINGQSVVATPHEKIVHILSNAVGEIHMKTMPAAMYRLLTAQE

[9] = target: T5, APBA1_1, Q02410
T5 sequence (Q02410 651-752, limits assumed, looked up): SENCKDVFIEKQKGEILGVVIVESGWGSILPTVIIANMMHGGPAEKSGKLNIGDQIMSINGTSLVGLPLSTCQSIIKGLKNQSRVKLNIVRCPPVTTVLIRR

[10] = target: Inadl_1, Q8NI35
[11] = target: T6, TIAM2, Q8IVF5
T6 sequence (Q8IVF5 885-986, limits assumed, looked up): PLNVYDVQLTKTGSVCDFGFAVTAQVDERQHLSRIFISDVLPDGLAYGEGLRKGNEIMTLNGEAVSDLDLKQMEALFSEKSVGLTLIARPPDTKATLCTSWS

[12] = target: SCRIB_3, Q14160
[13] = target: T7, PDZRN3_1, Q9UPQ7
T7 sequence (Q9UPQ7 244-349, limits assumed, looked up): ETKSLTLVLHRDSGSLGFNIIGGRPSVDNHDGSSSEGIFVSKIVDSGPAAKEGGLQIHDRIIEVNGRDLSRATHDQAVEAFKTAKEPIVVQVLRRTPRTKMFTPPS

[14] = target: DLG4_3, P78352
[15] = target: Inadl_2, Q8NI35
[16] = target: TJP2_1, Q9UDY2
[17] = target: T8, GRIP1_4, Q9Y3R0
T8 sequence (Q9Y3R0 467-571, limits assumed, looked up): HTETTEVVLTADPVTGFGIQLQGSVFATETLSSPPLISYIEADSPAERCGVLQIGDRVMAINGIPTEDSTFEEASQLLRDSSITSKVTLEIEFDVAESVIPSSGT

[18] = target: T9, MPDZ_10, O75970
T9 sequence (O75970 1624-1722, limits assumed, looked up): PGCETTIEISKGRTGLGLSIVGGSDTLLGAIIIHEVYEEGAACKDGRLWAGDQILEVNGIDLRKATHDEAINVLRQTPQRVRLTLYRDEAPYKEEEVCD

[19] = target: NHERF4_1, Q86UT5-2
[20] = target: T10, FRMPD1, Q5SYB0
T10 sequence (Q5SYB0 52-145, limits assumed, looked up): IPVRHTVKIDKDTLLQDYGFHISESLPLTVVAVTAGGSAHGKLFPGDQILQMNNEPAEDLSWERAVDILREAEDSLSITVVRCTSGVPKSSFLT

[21] = target: NOS1, P29475
[22] = target: HTRA1, Q92743
[23] = target: MAGI2_4, Q86UL8
[24] = target: SCRIB_2, Q14160
[25] = target: T11, DFNB31_2, Q9P202
T11 sequence (Q9P202 274-371, limits assumed, looked up): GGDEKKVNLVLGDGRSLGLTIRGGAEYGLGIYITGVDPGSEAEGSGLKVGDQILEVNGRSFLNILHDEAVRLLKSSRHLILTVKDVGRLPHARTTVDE

[26] = target: T12, GRIP1_5, Q9Y3R0
T12 sequence (Q9Y3R0 568-668, limits assumed, looked up): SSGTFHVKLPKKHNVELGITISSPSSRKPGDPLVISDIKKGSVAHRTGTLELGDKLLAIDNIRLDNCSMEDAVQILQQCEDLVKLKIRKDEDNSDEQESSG

[27] = plain residues with an end cap or a label only (N-terminal biotin on a linker: ado-ado)
[28] = plain residues with an end cap or a label only (N-terminal biotin on a linker: ahx)
[29] = plain residues with an end cap or a label only (N-terminal biotin on a linker: ttds)

Sequence of TJP2_1, Q9UDY2 (Q9UDY2 24-128): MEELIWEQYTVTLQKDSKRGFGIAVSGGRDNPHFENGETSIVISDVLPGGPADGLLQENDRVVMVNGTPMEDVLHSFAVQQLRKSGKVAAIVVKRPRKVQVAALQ
Sequence of GIPC2, Q8TF65 (Q8TF65 112-203): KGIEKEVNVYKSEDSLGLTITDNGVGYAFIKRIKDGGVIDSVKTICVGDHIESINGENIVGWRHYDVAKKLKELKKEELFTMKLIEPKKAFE
Sequence of DLG4_3, P78352 (P78352 306-403): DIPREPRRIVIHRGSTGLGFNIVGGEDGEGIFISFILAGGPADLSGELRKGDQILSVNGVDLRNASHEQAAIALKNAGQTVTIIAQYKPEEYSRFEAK
Sequence of Inadl_1, Q8NI35 (Q8NI35 113-229): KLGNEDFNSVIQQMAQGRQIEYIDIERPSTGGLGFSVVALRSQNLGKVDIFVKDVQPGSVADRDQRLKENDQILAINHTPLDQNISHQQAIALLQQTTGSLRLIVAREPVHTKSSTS
Sequence of NOS1, P29475 (P29475 9-101): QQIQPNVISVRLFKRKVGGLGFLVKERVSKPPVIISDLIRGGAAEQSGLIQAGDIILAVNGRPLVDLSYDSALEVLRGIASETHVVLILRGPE
Sequence of SCRIB_2, Q14160 (Q14160 857-960): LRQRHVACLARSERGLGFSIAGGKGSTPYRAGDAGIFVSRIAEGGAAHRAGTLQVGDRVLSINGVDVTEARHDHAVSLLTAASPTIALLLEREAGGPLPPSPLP
Sequence of NHERF4_1, Q86UT5-2 (Q86UT5 other isoform, or with tags, fused parts or gaps): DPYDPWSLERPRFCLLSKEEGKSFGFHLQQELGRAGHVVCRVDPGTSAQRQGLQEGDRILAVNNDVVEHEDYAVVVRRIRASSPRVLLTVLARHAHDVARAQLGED
Sequence of HTRA1, Q92743 (Q92743 360-477): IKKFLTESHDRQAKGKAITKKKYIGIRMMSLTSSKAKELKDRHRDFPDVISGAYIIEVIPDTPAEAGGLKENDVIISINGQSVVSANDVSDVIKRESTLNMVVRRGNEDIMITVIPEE
Sequence of MAGI2_4, Q86UL8 (Q86UL8 772-865): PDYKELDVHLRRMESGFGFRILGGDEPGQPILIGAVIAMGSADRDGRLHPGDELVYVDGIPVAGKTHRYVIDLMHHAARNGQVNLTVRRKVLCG
Sequence of Inadl_2, Q8NI35 (Q8NI35 238-335): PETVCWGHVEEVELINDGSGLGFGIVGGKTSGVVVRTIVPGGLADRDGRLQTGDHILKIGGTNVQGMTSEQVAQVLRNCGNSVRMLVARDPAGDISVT
Sequence of SCRIB_3, Q14160 (Q14160 999-1103): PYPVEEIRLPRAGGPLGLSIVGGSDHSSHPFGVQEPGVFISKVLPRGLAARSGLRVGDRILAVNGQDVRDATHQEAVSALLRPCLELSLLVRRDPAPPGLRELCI
Sequence of Inadl_3, Q8NI35 (Q8NI35 359-469): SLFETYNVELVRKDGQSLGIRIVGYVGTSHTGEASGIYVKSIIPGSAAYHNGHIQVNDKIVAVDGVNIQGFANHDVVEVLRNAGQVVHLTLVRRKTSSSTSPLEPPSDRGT
Sequence of Inadl_4, Q8NI35 (Q8NI35 547-651): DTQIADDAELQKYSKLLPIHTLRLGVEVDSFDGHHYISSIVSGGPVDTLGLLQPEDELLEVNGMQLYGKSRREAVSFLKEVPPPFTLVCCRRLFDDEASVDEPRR

pKd [1, 29]: below the threshold
pKd [2, 29]: below the threshold
pKd [3, 29]: below the threshold
pKd [4, 29]: below the threshold
pKd [5, 29]: below the threshold
pKd [6, 29]: below the threshold
pKd [7, 29]: below the threshold
pKd [8, 29]: 3.71
pKd [9, 29]: below the threshold
pKd [10, 29]: below the threshold
pKd [11, 29]: below the threshold
pKd [12, 29]: 3.5
pKd [13, 29]: below the threshold
pKd [14, 29]: below the threshold
pKd [15, 29]: below the threshold
pKd [16, 29]: below the threshold
pKd [17, 29]: below the threshold
pKd [18, 29]: below the threshold
pKd [19, 29]: 3.81
pKd [20, 29]: 3.73
pKd [21, 29]: below the threshold
pKd [22, 29]: below the threshold
pKd [23, 29]: below the threshold
pKd [24, 29]: below the threshold
pKd [25, 29]: below the threshold
pKd [26, 29]: below the threshold
B4: DGKK, Q5KSL6 (peptide)
chain: DPLTPSRSQL

pKd [1, 28]: below the threshold
pKd [2, 28]: below the threshold
pKd [3, 28]: below the threshold
pKd [4, 28]: below the threshold
pKd [5, 28]: below the threshold
pKd [6, 28]: 3.73
pKd [7, 28]: below the threshold
pKd [8, 28]: below the threshold
pKd [9, 28]: 3.63
pKd [10, 28]: below the threshold
pKd [11, 28]: below the threshold
pKd [12, 28]: below the threshold
pKd [13, 28]: 3.54
pKd [14, 28]: below the threshold
pKd [15, 28]: below the threshold
pKd [16, 28]: below the threshold
pKd [17, 28]: below the threshold
pKd [18, 28]: 3.69
pKd [19, 28]: 3.88
pKd [20, 28]: below the threshold
pKd [21, 28]: below the threshold
pKd [22, 28]: 3.62
pKd [23, 28]: 3.55
pKd [24, 28]: below the threshold
pKd [25, 28]: below the threshold
pKd [26, 28]: below the threshold
B5: ADRB2, P07550 (peptide)
chain: RNCSTNDSLL

More lines, now with the values behind:

B1: NCBP2L, A6PVI3 (peptide)
chain: RGGFGRQTQI
pKd [1, 27]: below the threshold
pKd [2, 27]: below the threshold
pKd [3, 27]: below the threshold
pKd [4, 27]: below the threshold
pKd [5, 27]: 4.05
pKd [6, 27]: below the threshold
pKd [7, 27]: below the threshold
pKd [8, 27]: below the threshold
pKd [9, 27]: below the threshold
pKd [10, 27]: below the threshold
pKd [11, 27]: 4.02
pKd [12, 27]: 4.48
pKd [13, 27]: 3.74
pKd [14, 27]: 4.17
pKd [15, 27]: below the threshold
pKd [16, 27]: 3.88
pKd [17, 27]: below the threshold
pKd [18, 27]: below the threshold
pKd [19, 27]: 3.8
pKd [20, 27]: below the threshold
pKd [21, 27]: 4.08
pKd [22, 27]: below the threshold
pKd [23, 27]: below the threshold
pKd [24, 27]: below the threshold
pKd [25, 27]: below the threshold
pKd [26, 27]: below the threshold

B2: APC, P25054 (peptide)
chain: HSGSYLVTSV
pKd [1, 28]: below the threshold
pKd [2, 28]: below the threshold
pKd [3, 28]: below the threshold
pKd [4, 28]: below the threshold
pKd [5, 28]: 4.3
pKd [6, 28]: below the threshold
pKd [7, 28]: 4.51
pKd [8, 28]: 4.03
pKd [9, 28]: below the threshold
pKd [10, 28]: below the threshold
pKd [11, 28]: below the threshold
pKd [12, 28]: 4.45
pKd [13, 28]: below the threshold
pKd [14, 28]: 4.5
pKd [15, 28]: below the threshold
pKd [16, 28]: below the threshold
pKd [17, 28]: below the threshold
pKd [18, 28]: 4.06
pKd [19, 28]: below the threshold
pKd [20, 28]: below the threshold
pKd [21, 28]: 3.68
pKd [22, 28]: 4.2
pKd [23, 28]: 4.17
pKd [24, 28]: 4.33
pKd [25, 28]: below the threshold
pKd [26, 28]: below the threshold

B3: NRXN3_rs746444206, Q9Y4C0 (peptide)
chain: QKNKDKEYYV
pKd [1, 27]: below the threshold
pKd [2, 27]: 4.64
pKd [3, 27]: below the threshold
pKd [4, 27]: 3.86
pKd [5, 27]: below the threshold
pKd [6, 27]: 4
pKd [7, 27]: below the threshold
pKd [8, 27]: 4.02
pKd [9, 27]: below the threshold
pKd [10, 27]: 3.51
pKd [11, 27]: 4.34
pKd [12, 27]: below the threshold
pKd [13, 27]: below the threshold
pKd [14, 27]: below the threshold
pKd [15, 27]: 4.92
pKd [16, 27]: below the threshold
pKd [17, 27]: below the threshold
pKd [18, 27]: below the threshold
pKd [19, 27]: below the threshold
pKd [20, 27]: below the threshold
pKd [21, 27]: 3.88
pKd [22, 27]: 5.32
pKd [23, 27]: 3.54
pKd [24, 27]: below the threshold
pKd [25, 27]: below the threshold
pKd [26, 27]: below the threshold
